Assay results from patent US20130136735A1 (NKT THERAPEUTICS, published 2013).
Each block holds one binder with its values, some of them ahead of it.

Legend:
[1] = molecular target: T1, recombinant soluble human iTCR (Hu-siTCR) (human); assay: ELISA using Hu-siTCR
T1 construct: Bought recombinant soluble heterodimer, coated on nickel (HIS-Select) plates; also called recombinant TCR heterodimer (Precision Antibody); purified TCR heterodimer

human FcγRI [2] = molecular target: T2, human FcγRI (human, UniProt P12314 16-288, limits assumed); assay: ELISA
T2 sequence (P12314 16-288 limits assumed): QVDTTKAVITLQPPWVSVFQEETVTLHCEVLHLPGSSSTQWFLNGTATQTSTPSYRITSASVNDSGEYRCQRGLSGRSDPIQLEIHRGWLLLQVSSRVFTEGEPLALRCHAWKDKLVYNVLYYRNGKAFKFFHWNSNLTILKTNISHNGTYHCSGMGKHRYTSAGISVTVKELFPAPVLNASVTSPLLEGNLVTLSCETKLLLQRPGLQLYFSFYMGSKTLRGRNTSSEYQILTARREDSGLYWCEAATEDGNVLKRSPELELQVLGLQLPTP

complement component C1q = complement component C1q (human, UniProt P02745 23-245; P02746 28-253; P02747 29-245); assay: ELISA
complement component C1q, sequence (P02745 23-245 limits assumed, chain 1 of 3): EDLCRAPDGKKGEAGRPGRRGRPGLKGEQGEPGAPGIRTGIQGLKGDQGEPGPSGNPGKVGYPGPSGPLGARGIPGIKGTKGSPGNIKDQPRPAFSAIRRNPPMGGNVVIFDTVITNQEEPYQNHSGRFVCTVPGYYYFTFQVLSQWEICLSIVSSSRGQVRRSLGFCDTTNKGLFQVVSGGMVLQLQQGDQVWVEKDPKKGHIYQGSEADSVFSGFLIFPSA
complement component C1q, sequence (P02746 28-253 limits assumed, chain 2 of 3): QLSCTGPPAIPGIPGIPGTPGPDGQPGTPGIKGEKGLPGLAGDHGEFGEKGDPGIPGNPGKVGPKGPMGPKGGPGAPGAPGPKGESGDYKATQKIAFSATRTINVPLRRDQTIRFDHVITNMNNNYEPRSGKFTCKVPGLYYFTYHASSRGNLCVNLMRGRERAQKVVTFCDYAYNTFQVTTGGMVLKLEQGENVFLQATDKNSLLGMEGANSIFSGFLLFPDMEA
complement component C1q, sequence (P02747 29-245 limits assumed, chain 3 of 3): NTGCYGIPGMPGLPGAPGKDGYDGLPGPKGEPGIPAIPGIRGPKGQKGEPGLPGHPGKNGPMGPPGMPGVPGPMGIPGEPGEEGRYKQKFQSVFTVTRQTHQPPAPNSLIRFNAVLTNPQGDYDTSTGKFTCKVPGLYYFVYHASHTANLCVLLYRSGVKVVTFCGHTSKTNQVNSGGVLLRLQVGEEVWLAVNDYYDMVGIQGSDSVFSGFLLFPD

human FcγRI [3] = molecular target: T2, human FcγRI; assay: summary of Example 2
[4] = molecular target: T1, recombinant soluble human iTCR …; assay: competition ELISA on plate-bound recombinant TCR heterodimer; competitor biotinylated chimeric 6B11 IgG1; IC50 of test divided by IC50 of reference
[5] = molecular target: T1, recombinant soluble human iTCR …; assay: SPR (BIAcore)
human FcγRI [6] = molecular target: T2, human FcγRI; assay: ELISA / BIAcore, not said which
FcγRIII = molecular target: T3, FcγRIII (human); assay: in vitro binding experiments, afucosylated against fucosylated IgG1; reference not named
T3 construct: also called Fc-gamma-RIII
T3 sequence (P08637 17-208): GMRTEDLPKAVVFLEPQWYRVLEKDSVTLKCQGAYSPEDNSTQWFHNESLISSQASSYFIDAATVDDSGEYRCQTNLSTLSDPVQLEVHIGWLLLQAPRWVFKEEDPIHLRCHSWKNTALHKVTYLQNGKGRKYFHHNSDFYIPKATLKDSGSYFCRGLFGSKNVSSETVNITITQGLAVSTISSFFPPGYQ

IC50 [1]: 1 µg/mL
binding result (human FcγRI [2]): binds
binding result (complement component C1q): binds
B1: NKTT103 (6B11 chimeric IgG1 control antibody) (antibody)
heavy: not shown
light: DIVMTQSHKFMSTSVGDRVSITCKASQDVSTAVAWYQQKPGQSPKLLIYWASTRHTGVPDRFTGSGSGTDYTLTISSVQAEDLALYYCQQHYSTPWTFGGGTKLEIKRTVAAPSVFIFPPSDEQLKSGTASVVCLLNNFYPREAKVQWKVDNALQSGNSQESVTEQDSKDSTYSLSSTLTLSKADYEKHKVYACEVTHQGLSSPVTKSFNRGEC
notes: Murine 6B11 V regions on human IgG1; also called chimeric 6B11 IgG1; chimeric 6B11 mAb

binding result (human FcγRI [3]): binds
IC50 [1]: 0.2 µg/mL
Relative IC50 [4]: 0.212 ratio to chimeric 6B11 IgG1
Kd [5]: ~60 nM
B2: NKTT120 (antibody, human IgG1, kappa)
heavy: not shown
light: DIQMTQSPSSLSASVGDRVTITCKASQDVSTAVAWYQQKPGQAPRLLIYWASTRHTGVPSRFSGSGSGTDFTLTISSLQPEDFALYYCQQHYSTPWTFGQGTKLEIKRTVAAPSVFIFPPSDEQLKSGTASVVCLLNNFYPREAKVQWKVDNALQSGNSQESVTEQDSKDSTYSLSSTLTLSKADYEKHKVYACEVTHQGLSSPVTKSFNRGEC
notes: Humanized IgG1 with VH4 and VK4; also called VH 4/VK4; VH 4/Vκ4

binding result (human FcγRI [6]): no binding
B3: NKTT320 (antibody, human IgG4 S228P, kappa)
heavy: not shown
light: DIQMTQSPSSLSASVGDRVTITCKASQDVSTAVAWYQQKPGQAPRLLIYWASTRHTGVPSRFSGSGSGTDFTLTISSLQPEDFALYYCQQHYSTPWTFGQGTKLEIKRTVAAPSVFIFPPSDEQLKSGTASVVCLLNNFYPREAKVQWKVDNALQSGNSQESVTEQDSKDSTYSLSSTLTLSKADYEKHKVYACEVTHQGLSSPVTKSFNRGEC
notes: also called modified IgG4 anti-iNKT mAb

fold improvement of binding (FcγRIII): ≤ 100 fold
B4: NKTT219 (antibody, human IgG1)
heavy: not shown
VL: DIVMTQSPSSLSASVGDRVTITCKASQDVSTAVAWYQQKPGQAPRLLIYWASTRHTGVPSRFSGSGSGTDFTLTISSLQPEDFALYYCQQHYSTPWTFGQGTKLEIK
modifications: non-fucosylated (afucosylated) carbohydrate in the Fc portion
notes: also called ADCC-enhanced humanized IgG1
